From patent US20040233833A1, “Methods for identifying compounds with thrapeutic potential for treatment of central Neurodegenerative diseases resulting from abnormal protein or peptide accumulation” (priority 2001, published 2004)

Columns and labels:
[1] = target: proteasome (chymotrypsin-like activity) (Homo sapiens, UniProt P28072+P28074+Q99436); assay: Activity screen of E. coli lysates expressing mutagenized REGγ for stimulation of LLVY-MCA cleavage; format: biochemical; conditions: 170 ng proteasome, 100 μM LLVY-MCA, 10-minute incubation; 1400 colonies
Experimental: Error-prone PCR was used to introduce random mutation into the REGγ DNA. See Zhang et al., (1998)Idnetification of an Activation Region in the Proteasome Activator REGα. Proc. Natl. Acad. Sci. 95:2807-2811. The PCR products were inserted into pET26(b) through NdeI/BamHI sites. The resulting plasmid library was transformed into BL21(DE3) cells. About 60% of the isolated colonies contained a single-site mutation.
Transformants were picked and grown at 37° C. in LB containing 25 μg/ml kanamycin. Protein expression was induced with 0.8 mM IPTG for 2 hours at 30° C. Cells were collected by centrifugation and lysed with 10 mM Tris-HCL, pH 7.5, 0.5% Triton X-100, and 0.3 mg/ml polymixin B sulfate. Aliquots were incubated with 170 ng proteasome and 100 μM LLVY (SEQ ID NO:1)-MCA. After a 10-minute incubation, reactions were terminated with 200 μl of ethanol and fluorescence was measured. See Li et al (2000), The Proteasome Activator 11S REG or PA28: Chimeras Implicate Carboxyl-Terminal Sequences in Oligomerization and Proteasome Binding But Not in the Activation of Specific Proteasome Catalytic Subunits, J. Mol. Biol. 299:641-54.

[2] = target: proteasomes (Homo sapiens, UniProt P28072+P28074+Q99436); assay: Proteasomal degradation of fluorescein-labeled polyQ peptides (molecular exclusion chromatography); format: biochemical; conditions: proteasome + activator, 5 hr incubation
Experimental: The following peptides were synthesized using routine peptide synthesis:
Each peptide was incubated for 5 hr with proteasomes alone, proteasomes+REGγ, proteasome+REGγ(K188E) or proteasomes+REGα/β. Degradation was assayed by molecular exclusion chromatography using fluorescein as a signal (see FIG. 2). The degradation products were identified by HPLC-MS (FIG. 3). […] By contrast, in the presence of REGγ(K188E) the various polyQ peptides were degraded 5 to 10-fold faster.

[3] = target: T1, Human red blood cell proteasomes (Homo sapiens, UniProt P28072+P28074+Q99436); assay: Activation of fluorogenic peptide hydrolysis by the proteasome in the presence of REG variants; format: biochemical; conditions: for Stimulation of cleavage (x-fold) LLE: substrate LLE-βNA (PGPH site); for Stimulation of cleavage (x-fold) LLVY: substrate LLVY-MCA (chymotrypsin-like site); for Stimulation of cleavage (x-fold) LRR: substrate LRR-MCA (trypsin-like site); for Stimulation of hydrolysis of LLVY-MCA and LLE-βNA: summary of Table 1
T1 construct: Human red blood cell proteasomes; from tissue; host or cells: human red blood cells
Experimental: Human red blood cell proteasomes (170 ng) were mixed with increasing amounts of purified REG variants. The reactions were started by adding 50 μl of 200 μMscu-LLVY-MCA, Boc-LRR-MCA, or Boc-LLE-βNA in 10 mM Tris, pH 7.5. After a 10 min incubation, the reaction was quenched with 200μl of cold 100% ethanol, and the released MCA or βNA ws measured fluometrically. Each data point represents the mean of three measurements from a single experiment. […] REGα (▪), REGγ(□), REGγ(K188E) or REGγ(K188D) (●), REGγ(K188H) (∘), REGγ(K188Q) or REGγ(K188N) (Δ), REGγ(K188A) (♦). The data for REGγ(K188E) and REGγ(K188D) and for REGγ(K188Q) and REGγ(K188N) were combined since their activities were indistinguishable.
Because each positive variant identified in the previous example included a mutation at Lys188, site-directed mutagenesis was used to generate a series of amino acid substitutions at this residue. Twelve mutants were constructed in which Lys188 of REGγ was changed to Ala, Arg, Asn, Asp, Cys, Gln, Glu, His, Ile, Phe, Pro, or Ser. Wild-type REGγ and the Lys 188 variants were expressed in E. coli, purified, and the activation specificity of each protein was measured using the diagnostic peptides LLVY (SEQ ID NO:1)-MCA, LRR-MCA, and LLE-βNA. Except for the K188R variant, all Lys 188 mutants stimulated the hydrolysis of LRR-MCA by the proteasome to the same extent or slightly better than wild-type REGγ. Substitution of negatively-charged Glu or Asp for the positively-charged Lys188 produced mutants with activation properties almost identical to REGα.
To determine the degree to which the activation specificity of REGγ(K188E/D) variants matches that of REGα, proteasomal cleavage of a series of fluorogenic peptides was measured in the presence of each activator.

[4] = Heptamer stability on rechromatography (Superdex 200 size exclusion column); format: physicochemical; conditions: for Percent heptamer: after second gel filtration; for Percentage that remained heptamers on rechromatography: Superdex 200 second gel filtration
From the text: To examine the effect of Lys188 substitution on REGγ heptamer stability, the wildtype and Lys 188 variant heptamers were rechromatographed on the Superdex 200 (26/60) size exclusion column used for purification. […] Replacement of Lys 188 by Pro or Phe severely affected the stability of REGγ heptamer.

[5] = target: T2, proteasome (Homo sapiens, UniProt P28072+P28074+Q99436); assay: REGα(N146Y)/REGβ(N135Y) competition assay for relative proteasome affinity; format: binding; conditions: in terms of REGα(N146Y)/REGβ(N135Y) competition; wild-type REGγ 100
From the text: As a measure of the relative affinities of REGγ and the REGγLys188 mutants for the proteasome, a competition assay was used. See Li et al. (2000), The Proteasome Activator 11S REG or PA28: Chimeras Implicate Carboxyl-Terminal Sequences in Oligomerization and Proteasome Binding But Not in the Activation of Specific Proteasome Catalytic Subunits. J. Mol. Biol. 299:641-54. All REGγLys188 mutants were relatively resistant to REGα(N146Y)/REGβ(N135Y) competition with apparent proteasome affinities varying from 40% to 90% that of wild-type REGγ.

[6] = target: T2, proteasome; assay: Proteasomal hydrolysis of natural peptides P21 and BBC1 (HPLC); format: biochemical; conditions: 21-residue peptide P21; result in words
Experimental: Proteasomal hydrolysis of a 21 -residue peptide (P21) and a 49-residue peptide (BBC1) were prepared as described by Zhang et al. (1998), Proteasome Activation by REG Molecules Lacking Homolog-specific Inserts, J. Biol. Chem. 273:9501-09. Digestion products were applied to a C18 HPLC column and separated with a gradient of 0-45% acetonitrile containing 0.1% trifluoroacetic acid. To identify the products derived from P21, fractions were collected manually, concentrated, and subjected to mass spectrometry.

[7] = target: T1, Human red blood cell proteasomes; assay: Activation of fluorogenic peptide hydrolysis by the proteasome in the presence of REG variants; format: biochemical

| Substance | Stimulation of cleavage (x-fold) LLE [3] [x-fold] | Stimulation of cleavage (x-fold) LLVY [3] [x-fold] | Stimulation of cleavage (x-fold) LRR [3] [x-fold] | Percent heptamer [4] | Relative affinity for proteasome [5] | Percentage that remained heptamers on rechromatography [4] | further results |
| --- | --- | --- | --- | --- | --- | --- | --- |
| (F102I, K188N): REGγ double mutant F102I, K188N isolated from the error-prone PCR library |  |  |  |  |  |  | Colony screen for stimulation of LLVY-MCA cleavage [1]: positive |
| (L38V, K188N): REGγ double mutant L38V, K188N isolated from the error-prone PCR library |  |  |  |  |  |  | Colony screen for stimulation of LLVY-MCA cleavage [1]: positive |
| (L71P, K188E): REGγ double mutant L71P, K188E isolated from the error-prone PCR library |  |  |  |  |  |  | Colony screen for stimulation of LLVY-MCA cleavage [1]: positive |
| REGα/β: REGα/β hetero-heptamer proteasome activator |  |  |  |  |  |  | % Degraded, substrate F1-EPQPQ [2]: 55%; % Degraded, substrate F1-KSQPQ [2]: 85%; % Degraded, substrate F1-QHQ [2]: 80%; % Degraded, substrate F1-QPQ [2]: 85%; % Degraded, substrate F1-QQQ [2]: 85% |
| REGα: 11S REG proteasome activator subunit closely related to REGβ and REGγ | 9 | 16 | 16 | ˜95% | 0 |  | Hydrolysis of P21 by the proteasome [6]: markedly increased; Stimulation of cleavage (x-fold) AAF-MCA ([7]; substrate AAF-MCA): 6 x-fold; Stimulation of cleavage (x-fold) DEVD-MCA ([7]; substrate DEVD(SEQ ID NO: 8)-MCA): 10 x-fold; Stimulation of cleavage (x-fold) FSR-MCA ([7]; substrate FSR-MCA): 10 x-fold; Stimulation of cleavage (x-fold) IEGR-MCA ([7]; substrate IEGR(SEQ ID NO: 5)-MCA): 3 x-fold; Stimulation of cleavage (x-fold) IETD-MCA ([7]; substrate IETD(SEQ ID NO: 6)-MCA): 30 x-fold; Stimulation of cleavage (x-fold) LGHD-MCA ([7]; substrate LGHD(SEQ ID NO: 7)-MCA): 11 x-fold; Stimulation of cleavage (x-fold) LY-MCA ([7]; substrate LY-MCA): 5 x-fold; Stimulation of cleavage (x-fold) VLK-MCA ([7]; substrate VLK-MCA): 7 x-fold; Stimulation of cleavage (x-fold) YVAD-MCA ([7]; substrate YVAD(SEQ ID NO: 9)-MCA): 9 x-fold |
| γK188A: mutant REGγ in which Lys188 was changed to Ala | 6 | 6 | 13 | 60% | 60 |  | Stimulation of hydrolysis of LLVY-MCA and LLE-βNA [3]: 6 fold |
| γK188F: mutant REGγ in which Lys188 was changed to Phe | 4 | 4 | 13 | Dimer | 40 | remained monomers or dimers |  |
| γK188H: mutant REGγ in which Lys188 was changed to His | 4 | 5 | 14 | >95% | 50 | remained fully heptameric |  |
| γK188I: mutant REGγ in which Lys188 was changed to Ile | 3 | 2 | 12 | >95% | 60 | remained fully heptameric | Stimulation of hydrolysis of LLVY-MCA and LLE-βNA [3]: 2 fold |
| γK188N: mutant REGγ in which Lys188 was changed to Asn | 5 | 5 | 14 | 80% | 75 |  | Colony screen for stimulation of LLVY-MCA cleavage [1]: positive |
| γK188P: mutant REGγ in which Lys188 was changed to Pro | 1 | 1 | 12 | 50% | 40 |  | Heptamers dissociated during the second gel filtration ([4]; Superdex 200): About 50% |
| γK188Q: mutant REGγ in which Lys188 was changed to Gln | 5 | 5 | 14 | 80% | 75 |  |  |
| γK188R: mutant REGγ in which Lys188 was changed to Arg | 0.7 | 0.7 | 10 | >95% | 75 | remained fully heptameric |  |
| γKI88S: mutant REGγ in which Lys188 was changed to Ser | 3 | 3 | 14 | >95% | 50 | remained fully heptameric |  |
| γKl88C: mutant REGγ in which Lys188 was changed to Cys | 5 | 6 | 13 | 70% | 60 |  | Stimulation of hydrolysis of LLVY-MCA and LLE-βNA [3]: 6 fold |
